{
  "source": "paper PMC3281051",
  "about": "“Probing High Affinity Sequences of DNA Aptamer against VEGF165”",
  "key": {"[1]": {"target": "VEGF on HT-29 cells (human) (UniProt P15692)", "sequence (P15692 whole entry)": "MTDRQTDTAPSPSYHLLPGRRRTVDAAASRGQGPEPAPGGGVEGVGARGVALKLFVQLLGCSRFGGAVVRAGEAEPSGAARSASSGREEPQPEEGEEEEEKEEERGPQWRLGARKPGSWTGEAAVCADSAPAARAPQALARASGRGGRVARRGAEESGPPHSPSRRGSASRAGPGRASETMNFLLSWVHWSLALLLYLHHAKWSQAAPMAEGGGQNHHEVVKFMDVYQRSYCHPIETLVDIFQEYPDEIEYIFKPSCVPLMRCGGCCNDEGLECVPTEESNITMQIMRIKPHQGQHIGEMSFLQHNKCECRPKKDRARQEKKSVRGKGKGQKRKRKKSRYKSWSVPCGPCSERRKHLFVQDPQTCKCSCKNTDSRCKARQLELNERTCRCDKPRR", "experiment": "flow cytometry", "conditions": "hypoxia 1% O2, 37 C, scrambled signal subtracted, SPR (BIAcore 2000, CM5): PBS + 0.005% Tween-20, 25 C, 30 ul/min, aptamer 0.2-100 nM, 1:1 Langmuir fit, cells: culture medium, 2 h"}, "[2]": {"target": "VEGF165 (human, UniProt P15692-4 27-191)", "sequence (P15692 other isoform, or with tags, fused parts or gaps)": "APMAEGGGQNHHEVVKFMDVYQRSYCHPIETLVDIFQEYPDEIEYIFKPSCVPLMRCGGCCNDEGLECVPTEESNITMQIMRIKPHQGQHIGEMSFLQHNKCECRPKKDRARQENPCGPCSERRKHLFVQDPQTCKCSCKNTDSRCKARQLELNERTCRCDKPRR", "experiment": "SPR; SPR (BIAcore 2000, CM5): PBS + 0.005% Tween-20, 25 C, 30 ul/min, aptamer 0.2-100 nM, 1:1 Langmuir fit; cells: culture medium, 37 C, 2 h, 1% O2", "conditions": "protein: commercial, tags: carrier-free, chain copies: 2"}, "[3]": {"target": "VEGF121 (human, UniProt P15692-9 27-147)", "sequence (P15692 other isoform, or with tags, fused parts or gaps)": "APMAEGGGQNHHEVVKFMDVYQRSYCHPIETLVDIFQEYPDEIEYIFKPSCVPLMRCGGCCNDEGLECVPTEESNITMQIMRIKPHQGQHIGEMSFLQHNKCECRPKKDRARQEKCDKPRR", "experiment": "SPR; SPR (BIAcore 2000, CM5): PBS + 0.005% Tween-20, 25 C, 30 ul/min, aptamer 0.2-100 nM, 1:1 Langmuir fit; cells: culture medium, 37 C, 2 h, 1% O2", "conditions": "protein: commercial; tags: carrier-free; chain copies: 2; hairpin"}, "[4]": {"target": "VEGF165, human (Homo sapiens (Human), UniProt P15692 27-191)", "experiment": "SPR; PBS, 0.005% Tween-20, 25 C; protein amine-coupled on CM5", "conditions": "chain copies: 2"}},
  "data": [
    {"molecule": "CAATTGGGCCCGTCCGTATGGTGGGT [SL2-B Texas Red]", "values": [
      {"measurement": "Kd", "setting": "[1]", "result": 1, "unit": "nM"}
    ]},
    {"molecule": "CAATTGGGCCCGTCCGTATGGTGGGT (ssDNA)", "note": "[SL2-B]", "values": [
      {"measurement": "Kd", "setting": "[2]; hairpin", "result": "0.5 ± 0.32", "unit": "nM"},
      {"measurement": "Kd", "setting": "[3]", "result": "10200 ± 1890", "unit": "nM"}
    ]},
    {"molecule": "ATACCAGTCTATTCAATTGG (ssDNA)", "note": "[SL1]", "values": [
      {"measurement": "binding result", "setting": "[2]; hairpin", "result": "no binding"}
    ]},
    {"molecule": "GCCCGTCCGTATGGTGGGT (ssDNA)", "note": "[SL2-A]", "values": [
      {"measurement": "Kd", "setting": "[2]; hairpin", "result": "10 ± 1.1", "unit": "nM"}
    ]},
    {"molecule": "VEa5 (ssDNA) DNA: ATACCAGTCTATTCAATTGGGCCCGTCCGTATGGTGGGTGTGCTGGCCAGATAGTATGTGCAATCA", "values": [
      {"measurement": "Kd", "setting": "[4]", "result": "120 ± 1.8", "unit": "nM"},
      {"measurement": "Kd", "setting": "[2]; 3 stem-loops (mfold)", "result": "120 ± 1.8", "unit": "nM"}
    ]},
    {"molecule": "CCCGTCCGTATGGTGGG (ssDNA)", "note": "[SL2]", "values": [
      {"measurement": "Kd", "setting": "[2]; hairpin", "result": "49 ± 2.4", "unit": "nM"}
    ]}
  ]
}
